Source: article PMC11783328

Key:
[1] = biological target: BG505 SOSIP.v4.1 GT1.1 trimer (BG505 SOSIP germline trimer 1.1) (HIV-1 (isolate BG505)) (UniProt Q2N0S6); assay: SPR; Biacore 3000; His-tagged GT1 and GT1.1 trimers captured in parallel flow cells, IgG injected from 1 μM in two- or four-fold dilutions; association 300 s, dissociation 600 s, 50 uL/min; bivalent model
[2] = biological target: gl-3BNC60 IgG (inferred germline precursor of 3BNC60); assay: SPR; details: antibody dilution series, colour key 0.98-1000 nM; KD1 fitted by bivalent modeling; parent: ND
[3] = biological target: 3BNC60 mature; assay: SPR; details: antibody dilution series, colour key 0.98-1000 nM; KD1 fitted by bivalent modeling
[4] = biological target: 12A12 germline (gl-12A12); assay: SPR; details: antibody dilution series, colour key 0.98-1000 nM; KD1 fitted by bivalent modeling; parent: ND
[5] = biological target: PGV19 germline (gl-PGV19); assay: SPR; details: antibody dilution series, colour key 0.98-1000 nM; KD1 fitted by bivalent modeling
[6] = biological target: VRC01 germline (gl-VRC01); assay: SPR; details: antibody dilution series, colour key 0.98-1000 nM; KD1 fitted by bivalent modeling

gl-3BNC60 IgG (inferred germline precursor of 3BNC60) (antibody), sequence (VH): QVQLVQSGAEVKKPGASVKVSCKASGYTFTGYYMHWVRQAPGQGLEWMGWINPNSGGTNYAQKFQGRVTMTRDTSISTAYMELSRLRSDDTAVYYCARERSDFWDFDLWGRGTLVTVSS
gl-3BNC60 IgG (inferred germline precursor of 3BNC60) (antibody), sequence (VL): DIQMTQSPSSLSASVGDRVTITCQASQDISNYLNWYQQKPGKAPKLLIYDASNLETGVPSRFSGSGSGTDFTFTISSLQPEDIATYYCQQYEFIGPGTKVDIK

Substance	KD1 (bivalent model) [1] [nM]	Kd [2] [nM]	Kd [3] [nM]	Kd [4] [nM]	Kd [5] [nM]	Kd [6] [nM]
gl-3BNC60 IgG (inferred germline precursor of 3BNC60) (antibody)	780	–	–	–	–	–
BG505 SOSIP.v4.1-GT1 trimer (from UniProt Q2N0S6) E275K	–	780	< 0.1	200	24	360
